From patent publication US20170327535A1

Each substance was assayed against aIgE-Fab (Fab fragment of Omalizumab, Xolair) (assay: SPR Biacore 3000, Fab on CM5 chip, peptide analyte, 1:1 fit).

Compared with “LB1t-Wild.1d (B1 domain of PpL312 with deletion of the N-terminal region)”, “LB3t-Wild.1d (B3 domain of PpL312 with deletion of the N-terminal region)” is 3-fold lower in Ka: 1.12e+09 M⁻¹ for the first, 3.77e+08 M⁻¹ for the second.

First: LB4t-Wild.1d (B4 domain of PpL312 with deletion of the N-terminal region)
Second: LB5t-Wild.1d (B5 domain of Protein L of Peptostreptococcus magnus 312 strain with deletion of the N-terminal region, single domain)
The Ka of the first is 2.4-fold higher: 1.08e+09 M⁻¹ for the first, 4.43e+08 M⁻¹ for the second.

Going from “LC1t-Wild.1d (C1 domain of PpL3316 with deletion of the N-terminal region)” to “LC4t-Wild.1d (C4 domain of PpL3316 with deletion of the N-terminal region)”, the Ka rises from 2.71e+07 M⁻¹ to 4.18e+09 M⁻¹ (150-fold).

Each substance was assayed against aRSV-Fab (Fab fragment of Palivizumab, Synagis) in the same assay as above.

Going from “LB1t-Wild.1d (B1 domain of PpL312 with deletion of the N-terminal region)” to “LB2t-Wild.1d (B2 domain of PpL312 with deletion of the N-terminal region)”, the Ka falls from 4.4e+06 M⁻¹ to 1e+06 M⁻¹ (4.4-fold).

First: LB4t-Wild.1d (B4 domain of PpL312 with deletion of the N-terminal region)
Second: LC1t-Wild.1d (C1 domain of PpL3316 with deletion of the N-terminal region)
The Ka of the first is 6-fold higher: 1.38e+07 M⁻¹ for the first, 2.3e+06 M⁻¹ for the second.

“LC2t-Wild.1d (C2 domain of PpL3316 with deletion of the N-terminal region)” and “LC3t-Wild.1d (C3 domain of PpL3316 with deletion of the N-terminal region)” are within 1.5-fold of each other in Ka: 9.2e+06 M⁻¹ for the first, 8.7e+06 M⁻¹ for the second.

Work on “LC4t-Wild.1d (C4 domain of PpL3316 with deletion of the N-terminal region)” yielded a Ka of 1.93e+07 M⁻¹.

What follows are substances tested against aTNFa-Fab (Fab fragment of Infliximab, Remicade) in the same assay as above.

First: LB1t-Wild.1d (B1 domain of PpL312 with deletion of the N-terminal region)
Second: LB4t-Wild.1d (B4 domain of PpL312 with deletion of the N-terminal region)
The Ka of the first is 10-fold lower: 30000 M⁻¹ for the first, 300000 M⁻¹ for the second.

“LB5t-Wild.1d (B5 domain of Protein L of Peptostreptococcus magnus 312 strain with deletion of the N-terminal region, single domain)” gave a Ka of 700000 M⁻¹.

The substances below were run against aTNFa-Fab (Fab fragment of Infliximab, Remicade) (assay: dynamic binding capacity on a 1 mL-gel column, 1 mg/mL aTNFa-Fab at […], 55% breakthrough).

Substance “commercially available Protein L carrier (HiTrap Protein L, GE Healthcare Bioscience)” has a 55% DBC of 4.8 mg/mL/gel.
